T1: membrane-bound human BCMA (human, UniProt Q02223 1-184)
T1 construct: whole, on cells; also called huBCMA
T1 sequence (looked up): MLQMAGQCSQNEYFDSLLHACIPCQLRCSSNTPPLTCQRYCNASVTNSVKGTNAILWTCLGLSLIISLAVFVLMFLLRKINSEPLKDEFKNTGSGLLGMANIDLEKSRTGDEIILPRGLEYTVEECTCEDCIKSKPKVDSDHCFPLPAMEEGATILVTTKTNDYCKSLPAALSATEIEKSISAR

T2: monomeric human sBCMA (GenScript) (human, UniProt Q02223 1-54)
T2 construct: extracellular domain; also called monomeric BCMA; monomeric (soluble) BCMA
T2 sequence (looked up): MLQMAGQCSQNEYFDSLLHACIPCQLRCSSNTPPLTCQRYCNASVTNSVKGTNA


Tests used:
[1] = target: T1, membrane-bound human BCMA; assay: flow cytometry on Ad293 cells expressing human BCMA, printed as apparent affinity
Experimental: (§1) Binding of 15B2GL, I09, L15, and J6M0 to membrane-bound human BCMA was evaluated using flow cytometry in multiple myeloma and plasma cell leukemia cell lines that endogenously express BCMA (NCI-H929 and MM.1S, respectively). Binding of 15B2GL, 109, L15 to membrane-bound human BCMA was also evaluated in Ad293 cells expressing human BCMA. Binding assays were performed by incubating the anti-BCMA antibodies with 200,000 cells for 30 minutes at 4° C. followed by two washes with PBS+2% FBS (FACS Buffer). A range of antibody concentrations were evaluated using a 12-point, 3-fold dilution series. Cells were then incubated with 5 ug/mL goat-anti human IgG-AF647 secondary antibodies (Thermo Fisher Scientific, Waltham, Mass.) at 4° C., followed by two washes in PBS+2% FBS. Cells were resuspended in 200 uL PBS+2% FBS+DAPI.
(§2) Fluorescence of live, single cells was measured using a BD Biosciences LSRII cytometer and BD FACSDiva™ software (BD Biosciences, San Jose, Calif.). Data were analyzed using FlowJo™ software (FlowJo, LLC, Ashland, Oreg.). Mean fluorescence intensity values were used to determine percentage bound and EC50 was determined using Prism™ software (GraphPad Software Inc, La Jolla, Calif.).

[2] = target: T2, monomeric human sBCMA (GenScript); assay: SPR (ProteOn XPR36), antibody captured by anti-Fc, sBCMA 100-6.25 nM as analyte
Experimental: The binding of 15B2GL monoclonal antibody and optimized clones I09, L15, P10, N22, and M02 (described in Example 1) was assessed using monomeric human sBCMA (GenScript, Piscataway, N.J.) using a ProteOn™ XPR36 instrument (Bio-Rad, Hercules, Calif.). The binding of J6M0 also was assessed for comparison. Standard amine coupling was used to immobilize 25 μg/ml anti-Fc polyclonal antibody (Jackson ImmunoResearch, West Grove, Pa.) prepared in 10 mM sodium acetate buffer (pH 4.5) to the surface of a ProteOn™ GLC biosensor chip (Bio-Rad, Hercules, Calif.) pre-activated with 20 mM EDAC (1-ethyl-3-(3-dimethylaminopropyl)carbodiimide hydrochloride) and 5 mM Sulfo-NHS (N-hydroxysulfosuccinimide) at a density of ˜200-600 resonance units (RU). 15B2GL, I09, L15, P10, N22, M02, and J6M0 were subsequently injected at a concentration of 1 μg/ml for capture by the immobilized anti-Fc polyclonal antibody. The sensorgram was recorded by flowing two-fold serial dilutions of sBCMA prepared in PBS (pH 7.4) with 0.005% (v/v) Tween®-20, ranging from 100-6.25 nM, over the captured surface for 150 seconds at 75 μL/minute with dissociation time of 600 seconds. ProteOn™ data analysis software was used to analyze the data.

[3] = target: T1, membrane-bound human BCMA; assay: flow cytometry on MM.1S cells (endogenous BCMA), printed as apparent affinity
Experimental: as §1, §2

[4] = target: T1, membrane-bound human BCMA; assay: flow cytometry on NCI-H929 cells (endogenous BCMA), printed as apparent affinity
Experimental: as §1, §2

Binder | EC50 [1] [nM] | Kd [2] [nM] | EC50 [3] [nM] | EC50 [4] [nM]
N22 (lead optimized clone of 15B2GL) (antibody, V domains shown, Cloned into an IgG mammalian expression vector ("Maia") designed for ADC conjugation) VH: EVQLVESGGGLVKPGGSLRLSCAASGFTFSSYSMNWVRQAPGKGLEWVSSISGSSNYIYYADSVKGRFTISRDNAKNSLYLQMNSLRAEDTAVYYCARGGNYFVEYFQYWGQGTLVTVSS VL: EIVLTQSPGTLSLSPGERATLSCRASQYISSNYLAWYQQKPGQAPRLLIYGASNRATGIPDRFSGSGSGTDFTLTISRLEPEDFAVYYCQQYSSSPITFGQGTKLEIK | – | 16 | – | –
M02 (lead optimized clone of 15B2GL) (antibody, V domains shown, Cloned into an IgG mammalian expression vector ("Maia") designed for ADC conjugation) VH: EVQLVESGGGLVKPGGSLRLSCAASGFTFSSYSMNWVRQAPGKGLEWVSSISGQSNYIYYADSVKGRFTISRDNAKNSLYLQMNSLRAEDTAVYYCARGGNYYVEYFQYWGQGTLVTVSS VL: EIVLTQSPGTLSLSPGERATLSCRASQYISSNNLAWYQQKPGQAPRLLIYGASNRATGIPDRFSGSGSGTDFTLTISRLEPEDFAVYYCQQYSSDPITFGQGTKLEIK | – | 9.9 | – | –

Further binders by falling Kd [2], results first:

EC50 [1] [nM] | Kd [2] [nM] | EC50 [3] [nM] | EC50 [4] [nM] | Binder
5.3 | 9.8 | 4.8 | 5.4 | I09 (lead optimized clone of 15B2GL) (antibody, V domains shown, Cloned into an IgG mammalian expression vector ("Maia") designed for ADC conjugation; also called 109 [sic]) VH: EVQLVESGGGLVKPGGSLRLSCAASGFTFSSYSMNWVRQAPGKGLEWVSSISGSSNYIYYADSVKGRFTISRDNAKNSLYLQMNSLRAEDTAVYYCARGGNYFVEYFQQWGQGTLVTVSS VL: EIVLTQSPGTLSLSPGERATLSCRASQYISSNYLAWYQQKPGQAPRLLIYGASNRATGIPDRFSGSGSGTDFTLTISRLEPEDFAVYYCQQYSSDPITFGQGTKLEIK
– | 5.3 | – | – | P10 (lead optimized clone of 15B2GL) (antibody, V domains shown, Cloned into an IgG mammalian expression vector ("Maia") designed for ADC conjugation) VH: EVQLVESGGGLVKPGGSLRLSCAASGFTFRSYSMNWVRQAPGKGLEWVSSISGQSNYIYYADSVKGRFTISRDNAKNSLYLQMNSLRAEDTAVYYCARGGNYYVEYFQYWGQGTLVTVSS VL: EIVLTQSPGTLSLSPGERATLSCRASQYISSNYLAWYQQKPGQAPRLLIYGASNRATGIPDRFSGSGSGTDFTLTISRLEPEDFAVYYCQQYTDSPITFGQGTKLEIK
4.48 | 4.5 | 4.2 | 4.2 | L15 (lead optimized clone of 15B2GL) (antibody, V domains shown, Cloned into an IgG mammalian expression vector ("Maia") designed for ADC conjugation) VH: EVQLVESGGGLVKPGGSLRLSCAASGFTFSSYSMNWVRQAPGKGLEWVSSISGQSNYIYYADSVKGRFTISRDNAKNSLYLQMNSLRAEDTAVYYCARGGNYFVEYFQYWGQGTLVTVSS VL: EIVLTQSPGTLSLSPGERATLSCRASQYISSNNLAWYQQKPGQAPRLLIYGASNRATGIPDRFSGSGSGTDFTLTISRLEPEDFAVYYCQQYADSPITFGQGTKLEIK

Reference: US20210214460A1 (AstraZeneca / MedImmune, published 2021)
